According to patent publication US12012599B2, “Compositions and methods for modulating left-right differentiation factor (LEFTY) and bone morphogenic factor (BMP)” (CZ Biohub SF LLC, priority 2018, dated 2024):

Tested on: mammary epithelial cells
Experiment: 3D organotypic mammary organoid formation
Assay type: cell-based, mouse
Conditions: for organoid formation (frequency, number of colonies): Wnt-dependent organoid culture
Procedure: FIGS. 8A-8D. Autocrine and paracrine effects of NODAL and LEFTY1 in mammary epithelial cell populations. […] The sorted cells were grown in the 3D organotypic assays to test their organoid formation potential in the presence of NODAL. […] Each dot represents an organoid (n=3). […] Data are represented as median±S.D. Statistical analysis, One-way ANOVA with Dunnet's adjustment, **p<0.01.
FIGS. 9A-9F. Opposing effects of LEFTY1 and BMP7 in mammary organoid formation. […] Data are represented as median±S.D. Statistical analysis, one-way ANOVA with Dunnet's adjustment, *p<0.05; **p<0.01; ***p<0.001.
Since LEFTY1 and BMP7 were able to affect the branching of mammary glands, we hypothesized that the LEFTY1/BMP7 signaling axis may affect the proliferation of mammary epithelial cells. We exposed freshly dissociated mammary epithelial cells to NODAL, LEFTY1, BMP7 and CRIPTO-1 in a modified Wnt-dependent in vitro organoid culture system that was optimized for progenitor cell propagation (Zeng & Nusse, Cell Stem Cell 6, 568-577 (2010) and Jamieson et al., Development 144, 1065-1071 (2017)). In Xenopus, Wnt signaling controls the expression of Nodal and Cripto-1 during gastrulation. Consistent with the evolutionary conservation of the interaction between the Nodal and Wnt pathways (Branford et al., Curr Biol 12, 2136-2141 (2002)), NODAL had no effect on organoid formation in our Wnt-driven culture system (FIG. 8A).
In organoid cultures, the basal cells give rise to mixed phenotype colonies of luminal and basal cells. To prevent the formation of LEFTY1-expressing cells during organoid formation, genetic knockdown of LEFTY1 was done. To knock-down mouse LEFTY1, pSICO-R lentiviral vector was used (Ventura, PNAS, 2004). Different shRNAs were designed and cloned into pSICO-R. The target sequences of the shRNAs cloned were GGACAAGGCTGATGTGGAA (SEQ ID NO: 14) and GCAGGTTCCTGGTGTCAGA (SEQ ID NO: 15). The efficiency of knock-down was tested by transfecting HEK293T cells with pSICO-R-shLEFTY1 constructs with pEGFP-C3-LEFTY1 at 1:4 and 1:20 ratio. Decrease on GFP signal was used to calculate the percentage of inhibition of the shLEFTY sequences. […] (p<0.001 and p<0.01, respectively) (FIGS. 8C-8D and FIGS. 9E-9F).

Row | Molecule | organoid formation (frequency, number of colonies) | effect on LEFTY1's increase of organoid formation (in combination with LEFTY1)
1 | NODAL: TGF-β family ligand that induces phosphorylation of SMAD2/3 (protein, UniProt Q96S42 238-347, looked up) Nodal homolog: HHLPDRSQLCRKVKFQVDFNLIGWGSWIIYPKQYNAYRCEGECPNPVGEEFHPTNHAYIQSLLKRYQPHRVPSTCCAPVKTKPLSMLYVDNGRVLLDHHKDMIVEECGCL | no effect | –
2 | CRIPTO-1: soluble EGF-CFC Nodal co-receptor (protein, UniProt P13385 31-150, looked up) Protein Cripto: LGHQEFARPSRGYLAFRDDSIWPQEEPAIRPRSSQRVPPMGIQHSKELNRTCCLNGGTCMLGSFCACPPSFYGRNCEHDVRKENCGSVPHDTWLPKKCSLCKCWHGQLRCFPQAFLPGCD | did not have a significant effect | enhanced
